Test results: patent publication JP2018158894A (dated 2018)

Target: T1, ヒンジ領域組換えタンパク質 (LGR6 hinge region partial protein, amino acids 446-567, with Trx-, S- and His-tags) (Homo sapiens (Human), UniProt Q9HBX8 446-567)
T1 construct: Used as immunogen and as ELISA antigen; also called LGR6のヒンジ領域部分タンパク質; hinge region recombinant protein; not shown: N-terminal Trx-, S- and His-tag from the pET32b vector; C-terminal His-tag from the pET32b vector
T1 sequence: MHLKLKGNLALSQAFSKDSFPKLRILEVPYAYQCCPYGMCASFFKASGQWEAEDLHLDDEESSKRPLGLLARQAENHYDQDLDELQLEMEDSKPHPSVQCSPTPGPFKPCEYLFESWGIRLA
Assay: Ag-ELISA, hybridoma culture supernatant on coated protein

binding result: binds
B1: m164抗体 (anti-LGR6 mouse monoclonal antibody produced by hybridoma clone 164) (antibody, V domains shown)
VH: EVQLQQSGPELVKPGASVKISCKTSGYTFTEYTMHWVKQSHGKSLEWIGGINPYNRVSSYNQRFKGKATLTVDKSSSTAYMELRSLTSEDSAVYYCARRYDVFDSWGQGTTLTVSS
VL: DIVMSQSPSSLAVSVGEKVSMSCKSSQSLLYSSNQKNYLAWYQQKPGQSPKLLISWASTRESGVPARFTGSGSGTDFTLTISSVRAEDLAVYYCQQHFNYPYTFGGGAKLEMK
notes: Tested as the mouse antibody from the hybridoma (culture supernatant or Protein G purified); the primers used were for mouse IgG1 CH and mouse kappa light chain; also called m164; LGR6抗体m164
